Source: paper PMC3963067

Molecular target: mysterin/RNF213, wild type, full length, C-terminally 3 × FLAG-tagged (mysterin-FLAG) and C-terminally cMyc-tagged (mysterin-Myc) copies (human) (UniProt Q63HN8)
Assay: co-IP; two differently tagged copies (C-terminal 3 × FLAG and cMyc) co-expressed in HEK-293 cells; lysate immunoprecipitated with anti-FLAG antibody, immunoblot with anti-Myc antibody; lysis buffer 1% NP-40, 150 mM KCl, 50 mM HEPES-NaOH pH 7.5
Details: remark: other sources report otherwise

“mysterin/RNF213, wild type, full length, C-terminally 3 × FLAG-tagged (mysterin-FLAG) and C-terminally cMyc-tagged (mysterin-Myc) copies, Q63HN8 1-5207” was tested, and the efficiency of the co-IP (co-IP divided by the basal expression level) was 1 to 3%.
